The source of these data is patent publication US20110064668A1.

The target in one experiment is Kv1.6 channel. The experiment can be described thus: cell-based or functional assay.
For experiment [1], the target named is α3β4 subtype of rat neuronal nAChR (rat), P04757. The experiment can be described thus: cell-based or functional assay.
α3β4 subtype of rat neuronal nAChR (rat), P04757, sequence (P04757 26-499, chain 1 of 2): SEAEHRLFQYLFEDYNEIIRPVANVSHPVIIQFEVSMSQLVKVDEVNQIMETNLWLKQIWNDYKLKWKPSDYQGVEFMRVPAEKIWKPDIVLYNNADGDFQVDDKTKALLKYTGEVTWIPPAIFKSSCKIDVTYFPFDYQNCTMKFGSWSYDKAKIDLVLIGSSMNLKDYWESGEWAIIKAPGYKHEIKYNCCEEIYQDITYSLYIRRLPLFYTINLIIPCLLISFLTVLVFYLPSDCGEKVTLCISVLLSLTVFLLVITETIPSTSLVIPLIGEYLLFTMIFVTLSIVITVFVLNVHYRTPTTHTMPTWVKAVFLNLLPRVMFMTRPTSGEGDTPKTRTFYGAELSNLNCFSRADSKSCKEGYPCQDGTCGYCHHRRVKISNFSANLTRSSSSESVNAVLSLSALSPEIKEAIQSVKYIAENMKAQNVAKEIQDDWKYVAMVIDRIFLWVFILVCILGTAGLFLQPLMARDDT
α3β4 subtype of rat neuronal nAChR (rat), P04757, sequence (P12392 21-495, chain 2 of 2, further chain): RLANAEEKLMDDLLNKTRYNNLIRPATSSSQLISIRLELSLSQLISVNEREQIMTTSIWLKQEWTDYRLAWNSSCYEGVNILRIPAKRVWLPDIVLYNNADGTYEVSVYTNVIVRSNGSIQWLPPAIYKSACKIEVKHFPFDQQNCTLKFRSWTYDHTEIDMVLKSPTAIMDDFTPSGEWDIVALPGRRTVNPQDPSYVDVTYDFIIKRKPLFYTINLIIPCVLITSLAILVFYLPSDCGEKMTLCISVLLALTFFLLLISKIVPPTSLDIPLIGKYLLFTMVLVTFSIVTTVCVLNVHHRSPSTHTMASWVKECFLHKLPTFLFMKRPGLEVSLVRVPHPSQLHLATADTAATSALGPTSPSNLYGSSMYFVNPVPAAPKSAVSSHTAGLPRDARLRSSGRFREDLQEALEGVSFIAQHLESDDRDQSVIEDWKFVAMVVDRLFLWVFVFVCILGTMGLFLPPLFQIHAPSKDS

In the experiment with Kv1.6 channel, FPRPRICNLACRAGIGHKYPFCHCR (modifications not checked) [conotoxin pl14a] returned an IC50, µM (vitelline membrane retained) of 3.12 µM and an IC50 for the block of Kv1.6 currents (vitelline membrane removed) of 1.59 µM. In experiment [1], this molecule came in with an IC50 in α3β4 (nM), block of ACh-elicited current in oocytes of 8700 nM.
